The assay addresses Bub1p fusion to the Gal4 DNA binding domain (budding yeast) (UniProt P41695). As to the kind of experiment: two-hybrid.
Chain of UniProt P41695 (P41695 whole entry, the tested form may be a part): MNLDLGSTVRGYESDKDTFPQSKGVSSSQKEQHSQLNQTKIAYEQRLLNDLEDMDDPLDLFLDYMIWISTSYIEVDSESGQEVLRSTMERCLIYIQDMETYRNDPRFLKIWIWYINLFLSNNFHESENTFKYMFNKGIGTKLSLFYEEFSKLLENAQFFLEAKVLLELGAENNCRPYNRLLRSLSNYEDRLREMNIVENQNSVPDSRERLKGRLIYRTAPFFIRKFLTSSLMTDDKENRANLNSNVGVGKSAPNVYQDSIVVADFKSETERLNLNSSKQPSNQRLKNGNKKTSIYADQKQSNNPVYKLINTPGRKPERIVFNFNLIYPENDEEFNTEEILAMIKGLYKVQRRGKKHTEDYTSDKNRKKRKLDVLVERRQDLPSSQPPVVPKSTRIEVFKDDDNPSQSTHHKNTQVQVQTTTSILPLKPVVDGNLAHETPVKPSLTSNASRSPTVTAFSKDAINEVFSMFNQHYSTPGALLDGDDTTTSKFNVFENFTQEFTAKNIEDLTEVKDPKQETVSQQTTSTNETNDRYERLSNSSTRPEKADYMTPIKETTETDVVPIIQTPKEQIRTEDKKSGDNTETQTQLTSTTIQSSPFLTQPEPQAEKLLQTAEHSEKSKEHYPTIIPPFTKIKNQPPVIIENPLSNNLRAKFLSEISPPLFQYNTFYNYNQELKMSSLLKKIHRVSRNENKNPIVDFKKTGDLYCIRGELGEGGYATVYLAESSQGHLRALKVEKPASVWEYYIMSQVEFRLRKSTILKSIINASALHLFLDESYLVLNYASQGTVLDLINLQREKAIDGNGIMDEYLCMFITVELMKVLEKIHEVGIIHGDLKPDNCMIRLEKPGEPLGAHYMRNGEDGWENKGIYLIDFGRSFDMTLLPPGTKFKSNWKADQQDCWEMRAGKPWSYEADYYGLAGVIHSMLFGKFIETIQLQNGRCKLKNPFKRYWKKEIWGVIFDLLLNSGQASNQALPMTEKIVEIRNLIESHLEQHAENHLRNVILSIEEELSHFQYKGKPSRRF

B1: Bub3p fusion to the transcriptional activation domain (natural protein)
chain: MQIVQIEQAPKDYISDIKIIPSKSLLLITSWDGSLTVYKFDIQAKNVDLLQSLRYKHPLLCCNFIDNTDLQIYVGTVQGEILKVDLIGSPSFQALTNNEANLGICRICKYGDDKLIAASWDGLIEVIDPRNYGDGVIAVKNLNSNNTKVKNKIFTMDTNSSRLIVGMNNSQVQWFRLPLCEDDNGTIEESGLKYQIRDVALLPKEQEGYACSSIDGRVAVEFFDDQGDDYNSSKRFAFRCHRLNLKDTNLAYPVNSIEFSPRHKFLYTAGSDGIISCWNLQTRKKIKNFAKFNEDSVVKIACSDNILCLATSDDTFKTNAAIDQTIELNASSIYIIFDYEN
In the case of B1, the β-galactosidase activity (two-hybrid) is 55 Miller units.

B2: Cdc20p fusion to the transcriptional activation domain (natural protein)
chain: MPESSRDKGNAAISGNRSVLSIASPTKLNILSSDWSRNQGKVSKNSLKRSSSLNIRNSKRPSLQASANSIYSRPKITIGAPPLIRRDSSFFKDEFDAKKDKATFSAYSSRSYPTIGSESVVSQTSLSQPTTSREVDEQFTVAADRYIPILQGASQNKVDPETLHEALPPPNASPISHLRAQTKIVFKQNVAEACGLDMNKRILQYMPEPPKCSSLRQKSYIMKKRTHYSYQQEQKIPDLIKLRKINTNPERILDAPGFQDDFYLNLLSWSKKNVLAIALDTALYLWNATTGDVSLLTDFENTTICSVTWSDDDCHISIGKEDGNTEIWDVETMSLIRTMRSGLGVRIGSLSWLDTLIATGSRSGEIQINDVRIKQHIVSTWAEHTGEVCGLSYKSDGLQLASGGNDNTVMIWDTRTSLPQFSKKTHTAAVKALSWCPYSPNILASGGGQTDKHIHFWNSITGARVGSINTGSQVSSLHWGQSHTSTNGGMMNKEIVATGGNPENAISVYNYETKFKVAEVVHAHEARICCSQLSPDGTTLATVGGDENLKFYKIFDPRCTGRSREDGLMDGMLGLIGKEGCRTNDKENRSKNSSEIHTRRPSSTSQYLIR
For B2, the β-galactosidase activity (two-hybrid) came to 100 Miller units.

For the origin of these results see publication PMC2174553.
